Assay: soluble on expression in E. coli; label from the status in PepcDB or PDB records

Soluble on expression in E. coli, not soluble:
MGSDKIHHHHHHMIMATLKDIAKLAKVSQATVSRVLNKDETLSVSQKTKHRILMVADELGYQKHLKTTNSPQVRQKIAIVQWYSQQEELNDLYYYSIRIGIEKRAQELDYDIVRYFDNDISKVSADIVGLIAIGKFSTYQIAELEKLSDKLIFVDSDTLNAGYPCVMTDFDNAVVKVLDYFLDHGLTKIGMIAGEEKTTDGRELLIDQRFRTFRNYAYEQDIYNPNYIFIGDFSAQTGYHLMKKAIKELKENLPQAFFIANDSLAIGALRALQEANIPVPNRVSLISFNDTALTKQVFPALSSITVFTKEMGRTAVDILNRQILNPDIIPSMTRLTTQLTLRESSI
MGSDKIHHHHHHMINLKELKILHTSDWHLGVTSWTSSRPVDRREELKKALDKVVEEAEKREVDLILLTGDLLHSRNNPSVVALHDLLDYLKRMMRTAPVVVLPGNHDWKGLKLFGNFVTSISSDITFVMSFEPVDVEAKRGQKVRILPFPYPDESEALRKNEGDFRFFLESRLNKLYEEALKKEDFAIFMGHFTVEGLAGYAGIEQGREIIINRALIPSVVDYAALGHIHSFREIQKQPLTIYPGSLIRIDFGEEADEKGAVFVELKRGEPPRYERIDASPLPLKTLYYKKIDTSALKSIRDFCRNFPGYVRVVYEEDSGILPDLMGEIDNLVKIERKSRREIEEVLRESPEEFKEELDKLDYFELFKEYLKKREENHEKLLKILDELLDEVKKSEA
MGSDKIHHHHHHMINQVYRLVSERQFEVANVDESLTGDVVVVRPTHLSICAADQRYYTGSRGKEMLSKKLPMALIHEGVGEVVYDATKEFKPGAKVVMIPNTPFENDPVIAENYLRSSKFRSSGYDGLMQDYVFMRRDRVVALPDDINMKVAAFSELISVAVHAILRFEGKSNANRESFGVWGDGNLGFITSLLLKNWYPDSKVYIFGKTPYKLDFFSFVDGAYAIDDVPADLVIDQAFECAGGMGSQYAVSQIIDVIKPEGTISLLGVSEYPIEFNSRMVLEKGLTVYGSSRSGRVDFEKTVEFLSTNKRGVEYLQNLVGEVHTVHSIQDVIEAFEADLRSPWGKSVMEWKI
MGSDKIHHHHHHMINRELYMEQITPFIDKPFVKVITGIRRCGKSVVLRLIREELLRRGVSEDYIIYMNFESFEWIDMKEAKALYAHIREATKASGKYYILLDEIQEVTDWEKAVNAFLVDLDVDIYVTGSNSRLLSSEFSTYLAGRYVAFHIMTLSFREYLLFHDLPLTISVSDRKTEFLKYLRMGGFPAIHTANYDYNAIYKIVYDIYSSVILRDTVQRHSIRNVEMLERVVKFVFDNIGNKLNAKNIADYFKSQQRKVDINTIYNYLNALDSAFVIQRIPRYDIKGKEILQTNEKYFVSDLSLIYSVMGYRDRLIGGMLENLVCMELKRRGYEVYVGKQDEKEVDFVAIRREEKIYVQVTYQLGLQATIDREFAPLLAIDDHYPKYVVSMDDLWQDNIEGVKHRHIADFLLDEW
MGSDKIHHHHHHMIPDKSVEILLGELSRDIAQRTPGTGDFPTAVEGLELFRRNEPAPPVSCLVPPSIVLVADGAKIMWVGGEPYEYNAEKFLITSLDLPASSEILQASTSQPCVGVAYKLDQRVLMELIAQGSLPPVKKRDAGTSVGIGTITDALLEPFCRLLSLLDEPEAIPVLGPLIQREIHYRLLMSDQSDHLRQIAAVDGHGYRIGKAIDWLKTNIASPLRVEELASRVQMSTPSFHHHFRQLAGMSPLRYQKWLRLNEARRLMLNEHYDVTTAAYAVGYESLSHFSREYTRMFGESPKRDITELRKSAGKL
MGSDKIHHHHHHMIPIVDSRIGAYLDGLLPEADPVVAAMEQIARERNIPIVDRQTGRLLYLLARIKQPQLVVVPGDGLGCASWWFARAISISSRVVMIDPDRDNVEHARRMLHDNGLIDRVELQVGDPLGIAAGQRDIDILFMDCDVFNGADVLERMNRCLAKNALLIAVNALRRGSVAESHEDPETAALREFNHHLSRRRDFFTTIVPVGNGVLLGYRLS
MGSDKIHHHHHHMIPRLELRSITKCYPGTVANDAVSLSILPGEIHAVLGENGAGKSTLMKIIYGAAQADSGEIYCDGRRIEAHNPAISRSLGIEMVYQHFALFESVSVVENIALAVKGTFDLDRLAAEIKTLSARYGMPIDPHRRVHDLSVGERQRVEIVRCLLQSPKLLILDEPTSVLTPQAVVKLFETLRQLASEGCSIVYISHKLDEVQELCDTATVLRNGKVTGTAKPKESTSLELARMMVGSQLPQMHVSPSAPSAKPLLEVRGLSAPARDKYGTELTDVSLEVHGGEIVGLAGVSGNGQAELIALLSGERTHPRAETILIGGRPSGHLNAGERRKLGMAFVPEERLGRGAVPPHALWENAVLTAHRAGLVRNALVDRRRAGEFARHIIERFKVKANGPQASAQSLSGGNLQKFIVGRELTLEPKILLVSQPTWGVDVGAAAFIRQTLVDLSRGGAAVLVVSEELDELFEICDRLLVISNGRVSPPLIRKQTNREEIGLLMTRVGHGETRRSEVALED
MGSDKIHHHHHHMIPRNEYLENLISFRDKQLIKVVTGIRRCGKSTLFELYQDYLLQNDVKPEQIIAFNLEDGDWAEIENSKDLYELVKARLLPDRMNYVFLDEVQRVTDFQKAVDSLFIKKNCDVYITGSNAYLLSGELATLLSGRYVEIKMLPLSFKEYVSAFPPDSSIDRLYQDYIHNSSFPYTLELKRQKDIRQYLDGLYDSIVLKDIVARRRFPDLAMLQSVVRFLFDNIGNLCSTKKIADTMTSAGRKITVHTVESYLTALTDSFIFYRVGRYDVKGKQYLKTGDKYYAADMGLRYNALGTKKADAGHILENIVYLELLRRGYEVHIGKVGAAEIDFIAIGPEGEEYYQVAYTVMDADGKTLQRELAPLDAISDHNPKFLLTMDHGPLVSHNGIKQLNALDWLLK
MGSDKIHHHHHHMIPTIRLHSQQLINPVFNNPKDLVSWMGGIQAQDYTMSKWAIGIRLKAGNLQTVNEALAKGDILRIHVMRPTWHYVAAEDIRWMLKLSSRRIITANDSFAKSRGQDISVDIYNKANRLLEKALAGHNHLTKQEIDNIFKEGGLETNERLSNRFLIHAEAEGLICSGADKNNKITFALLDERVPPIQELHKEEALAILARKYFRSHSPASLKDFVWWSGLSVTEARQGIAAIEQELLTDRFLAQKLYVHQSYKEEKTTDILHILPSYDEYLISYKDRTDVLNKEYQHKAFNSFGIFRPVILYNGQIVGNWNKVIQKQTTHIEMNWFKKNTKIKRELLSLAERKYLTFFSEL
MGSDKIHHHHHHMIQIKRGKIVGFNERVGRAFHPAQVAEPAQHAPHQRRLARTEVAFQIEGHAGRQAGRKPRAERKRGGLVGKVATRRRGIIRGMHEQDSPRDFGRLAAQIKQWGRELGFAAIGITDADLSAAEAGLHTWLDKGFHGEMDYMAAHGTKRSRPAELVPGTLRIISARLDYFPPDAVDPDTILATPDAAYVSRYALGRDYHKVLRQRLQTLAERIGAAAGEHHFRVFSDSAPVMEVELATRAGLGWRGKHTLLLNRHHGSWFFLGEIYSDLPLPVDAPEAEHCGTCHACLDACPTQAIVAPYSVDARRCISYLTIELKGSIPLELRSLIGNRIYGCDDCQLVCPWNRFAGTAAVPDFAVRNGLDSAQLVDLFAWSEADFNDRLAGSPIRRIGHERWLRNIAVALGNARPAPAIEAALGTRLDHPSAMVREHVAWALARQQER
MGSDKIHHHHHHMIRKHFKGYNFVCIPETGVTFRWGDSIAEDPYMAPWPELADISISNYCTNGCEYCYRASNEEGIFMTVADYKFILGQLTSKEYGSIFQVALGGGEPLLHPDFNEILHVTREEYGIIPNYTTCGKYFNQKNMEASKKYCGAVAVSWDPYRDNLSLEELRELGVQLKEEKIRTNIHYVISERTLIEAIKLLKGKYDEYLKDFNSVIFLTYKAAGRADKSDVIKSQKYLREFLDMVDAPLTKLKLGFDACFVPVLMKATGVDTDLVDSCECGFFSVYVSESMEVMPCSFCNNSNFTYNLKDLCFKDIWQKHFSAYRSYVNDNCKTGCAECDERSGCRGKCSFYNDIYLCNLV
MGSDKIHHHHHHMIRNKAFVVRLYPNAAQTELINRTLGSARFVYNHFLARRIAAYKESGKGLTYGQTSSELTLLKQAEETSWLSEVDKFALQNSLKNLETAYKNFFRTVKQSGKKVGFPRFRKKRTGESYRTQFTNNNIQIGEGRLKLPKLGWVKTKGQQDIQGKILNVTVRRIHEGHYEASVLCEVEIPYLPAAPKFAAGVDVGIKDFAIVTDGVRFKHEQNPKYYRSTLKRLRKAQQTLSRRKKGSARYGKAKTKLARIHKRIVNKRQDFLHKLTTSLVREYEIIGTEHLKPDNMRKNRRLALSISDAGWGEFIRQLEYKAAWYGRLVSKVSPYFPSSQLCHDCGFKNPEVKNLAVRTWTCPNCGETHDRDENAALNIRREALVAAGISDTLNAHGGYVRPASAGNGLRSENHATLVV
MGSDKIHHHHHHMIRVLLANPRGFCAGVDRAIEIVERALAMYGAPIYVRHEVVHNRFVVEDLEKKGAVFVENLEEVPEGSMLIFSAHGVSHEVRREAAARKLQIFDATCPLVTKVHVEVAKMDKEGKEIVMIGHQGHPEVEGTMGQIAKSKGTMYLVETAEDVARLQVKNESNLAYVTQTTLSVDDAARVIEALKQRFPKIIGPKKDDICYATQNRQDAVKKLVKLCDLVVVVGSPNSSNSNRLCEVARNENVEAYMVDQAEQLQESWLTNKRCIGITAGASAPEILVQQVLERLEQIAAKQSNQGVIIEELSGVLESVTFPLPKAEPVSFNKYI
MGSDKIHHHHHHMISDIPFLALLPLGAHEYHGDHLPFETDWIIAEAFAKALTVKTKKQFHIALLPVEKIGYSIEHMDVSGTQTLTFSEAIERWINIGEDCYRKGIKRFLLLNAHGGNSPLMSIVITELRKRFSMLAVATSWTRFGLPHGLMHPSQHHLDIHGGFIETSLMLYLAPEKVHMEKAKNFYNKQADMIANYQYLRAYGPHAFGWTMRDLNLQGAAGKAREATSQAGKAIFSHVLGGLRGLLDDINRFKIDAL
MGSDKIHHHHHHMISQHVRKKTREYPNRFFDSSVWNDLALRRGDIVIASYAKAGTTWLQQIVAQLIFGGEPNIDVSAISPWVDGVYPDKATKLALLEAQSQRRFMKTHLPADALVTSPLARYLYIGRDGRDIALSLYDHQCAVSQDAQARVHANGGKSGKLRVVSPPGLPRDAYVAHWLEYDGAPFWPLWENVRSWWERREDANVLLLHYADLLDDLPGQIRLIAAFLGITVAQDRWDAIVAHCRFDYMRQHAARYVPQGTGLWREDGKAFFNQGRIGRWREVLPAELNTAYSRRAEAELGRDAAQWLAHGQTQTS
MGSDKIHHHHHHMISQNSCQINESDLKNLKDWFYRYVRSFYSSDSIIQQAILLKEKHSLRVCNEILNIGKKLDLSHNALRLAEVMALFHDIGRFQQFVRYQTFVDQKSENHGELGVRILKQEKALAALDRDARELILKAISYHNRLTIPENESPICTYFSRLLRDADKLDIYYVVTTCYNSNGTERKAAVELDLPDTPEVSGEILISLIEEKMISLHQLKSLNDFKLLQMAWVYDINYLPTFRMIYERNYLRKIRDTLPGTEEIEQVYCKLISFLKAKL
MGSDKIHHHHHHMISQRALEAFRAVMTTGTVSAAAEELNVSQPAVSRLVRDLEEYTQLRLFSRHGGRIVATREAHEFNAEIERSFLGLRVIEQAAREIRQGRRGTVSVAVMPALAQTILPDVMADVRVSHPDFRLELLAMPTQSIVRQVATRQCPLGLTSPTHHANEVDVVKSGSLPYRCVMPDGHPLAAYEIIRLQDLSGMEFINYTDATATGRMLDHRFAHMTTPPVVNARAPISPVIAALVRKGLGVAILDPFTAQDHVNRGGVSRPVQIDEEFHWSFIKPYGEKLSSDLMAVISIFEDLSKNYA

Source: the DeepSol protein solubility set
